Measured values as given in patent publication US20250382359A1 (BYOMASS, published 2025).

T1: GDF15 (ligand used in the GFRAL/RET cell assays) (UniProt Q99988 197-308, limits assumed)
T1 sequence (looked up): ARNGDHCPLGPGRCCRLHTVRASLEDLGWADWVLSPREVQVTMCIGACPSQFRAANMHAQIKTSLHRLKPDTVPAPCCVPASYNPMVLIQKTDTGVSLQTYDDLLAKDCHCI

T2: GDF10 (UniProt P55107 369-478)
T2 sequence (looked up): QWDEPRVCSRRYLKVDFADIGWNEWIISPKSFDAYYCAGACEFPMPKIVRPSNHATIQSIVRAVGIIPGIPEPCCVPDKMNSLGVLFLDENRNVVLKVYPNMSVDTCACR

T3: Human Activin A Fc (human, UniProt P08476 311-426)
T3 construct: not shown: Fc part
T3 sequence (looked up): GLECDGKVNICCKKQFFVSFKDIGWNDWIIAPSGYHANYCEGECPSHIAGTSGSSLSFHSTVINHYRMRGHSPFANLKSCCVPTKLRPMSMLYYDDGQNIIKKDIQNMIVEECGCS

T4: Human Activin B (human, UniProt P09529 293-407)
T4 sequence (looked up): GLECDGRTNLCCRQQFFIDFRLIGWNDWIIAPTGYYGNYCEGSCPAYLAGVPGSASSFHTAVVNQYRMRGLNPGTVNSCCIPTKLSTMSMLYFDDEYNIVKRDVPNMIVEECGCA

T5: Human BMP9 (human, UniProt Q9UK05 320-429)
T5 sequence (looked up): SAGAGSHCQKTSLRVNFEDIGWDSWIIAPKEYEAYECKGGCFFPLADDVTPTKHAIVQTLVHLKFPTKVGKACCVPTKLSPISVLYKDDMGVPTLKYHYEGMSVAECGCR

T6: Human BMP10 (human, UniProt O95393 317-424)
T6 sequence (looked up): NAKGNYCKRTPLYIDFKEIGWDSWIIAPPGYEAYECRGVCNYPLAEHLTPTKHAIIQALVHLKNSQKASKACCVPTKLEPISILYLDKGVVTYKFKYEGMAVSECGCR

T7: Human GDF15 Fc (human, UniProt Q99988 195-308, limits assumed, biotinylated (EZ-Link Sulfo-NHS-Biotinylation Kit) in the SPR assay)
T7 construct: also called human GDF15-Fc fusion; biotinylated Human GDF15 Fc; not shown: Fc part
T7 sequence: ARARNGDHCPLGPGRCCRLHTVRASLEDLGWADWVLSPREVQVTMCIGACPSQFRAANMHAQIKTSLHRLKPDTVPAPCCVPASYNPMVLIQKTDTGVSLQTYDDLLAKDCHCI

T8: GDNF (UniProt P39905 78-211)
T8 sequence (looked up): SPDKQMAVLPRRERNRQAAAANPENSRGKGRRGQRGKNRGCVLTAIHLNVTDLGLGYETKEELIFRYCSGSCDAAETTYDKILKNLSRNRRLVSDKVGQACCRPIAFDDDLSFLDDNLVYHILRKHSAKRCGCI


Columns and labels:
[1] = target: T1, GDF15 (ligand used in the GFRAL/RET …); experiment: cell-based or functional assay
GDF8 = GDF8 (UniProt O14793 267-375); experiment: BLI Octet; IgG on sensor
GDF10 = target: T2, GDF10; experiment: BLI Octet; IgG on sensor
GDF11 = target: T9, GDF11 (UniProt O95390 299-407); experiment: BLI Octet; IgG on sensor
T9 construct: Also used as ligand in the Activin 2B receptor/SMAD reporter assay
T9 sequence (O95390 299-407 limits assumed): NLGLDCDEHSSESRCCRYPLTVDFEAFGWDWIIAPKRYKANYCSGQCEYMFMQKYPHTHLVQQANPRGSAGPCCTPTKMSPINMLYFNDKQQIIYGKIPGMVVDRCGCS

Human Activin A Fc = target: T3, Human Activin A Fc; experiment: BLI Octet; IgG on sensor
Human Activin B = target: T4, Human Activin B; experiment: BLI Octet; IgG on sensor
Human BMP9 = target: T5, Human BMP9; experiment: BLI Octet; IgG on sensor
Human BMP10 = target: T6, Human BMP10; experiment: BLI Octet; IgG on sensor
Human GDF15 Fc = target: T7, Human GDF15 Fc; experiment: BLI Octet; IgG on sensor, 100 nM antigen (avid)
Procedure: Briefly, ForteBio affinity measurements were performed by loading IgGs on-line onto AHC sensors. Sensors were equilibrated off-line in assay buffer for 30 min and then monitored on-line for 60 seconds for baseline establishment. Sensors with loaded IgGs were exposed to 100 nM antigen for 3 minutes, and afterwards were transferred to assay buffer for 3 min for off-rate measurement. All kinetics were analyzed using the 1:1 binding model.

GDNF = target: T8, GDNF; experiment: BLI Octet; IgG on sensor, 100 nM antigen (avid)

Row | Binder | GDF15-GFRAL RET pERK IC50 (pM) [1] | binding result (GDF8) | binding result (GDF10) | binding result (GDF11) | binding result (Human Activin A Fc) | binding result (Human Activin B) | binding result (Human BMP9) | binding result (Human BMP10) | Kd (Human GDF15 Fc) | Kd (GDNF) | GDF15-GFRAL-RET Luciferase IC50 (pM) [1]
1 | GDF15 antibody agent Clone M, IgG (antibody, V domains shown) VH: QVQLVQSGAEVKKPGASVKVSCKASGYTFDSYGINWVRQAPGQGLEWMGWISAYSGDTAYAQELQGRVTMTTDTSTSTAYMELRSLRSDDTAVYYCVRDTQYGGSPYWGQGTLVTVSS VL: not shown | 88.7 pM | no binding (tested: 100 nM) | no binding (tested: 100 nM) | no binding (tested: 100 nM) | no binding (tested: 100 nM) | no binding (tested: 100 nM) | no binding (tested: 100 nM) | no binding (tested: 100 nM) | 0.317 nM | 31.4 nM | 
2 | GDF15 antibody agent Clone K, IgG (antibody, V domains shown) VH: QVQLVQSGAEVKKPGASVKVSCKASGYTFTNEGISWVRQAPGQGLEWMGWISAYTADTFYAQKLQGRVTMTTDTSTSTAYMELRSLRSDDTAVYYCARTRHDTSGLRFDYWGQGTLVTVSS VL: DIQMTQSPSSVSASVGDRVTITCRASQGIDSWLAWYQQKPGKAPKLLIYAASSLQSGVPSRFSGSGSGTDFTLTISSLQPEDFATYYCQQVHSFPITFGGGTKVEIKR | 187 pM | no binding (tested: 100 nM) | no binding (tested: 100 nM) | no binding (tested: 100 nM) | no binding (tested: 100 nM) | no binding (tested: 100 nM) | no binding (tested: 100 nM) | no binding (tested: 100 nM) | 0.271 nM | 333 nM | 813 pM

The next lines start with the values.

Row | GDF15-GFRAL RET pERK IC50 (pM) [1] | binding result (GDF8) | binding result (GDF10) | binding result (GDF11) | binding result (Human Activin A Fc) | binding result (Human Activin B) | binding result (Human BMP9) | binding result (Human BMP10) | Kd (Human GDF15 Fc) | Kd (GDNF) | GDF15-GFRAL-RET Luciferase IC50 (pM) [1] | Binder
3 | 99.7 pM | no binding (tested: 100 nM) | no binding (tested: 100 nM) | no binding (tested: 100 nM) | no binding (tested: 100 nM) | no binding (tested: 100 nM) | no binding (tested: 100 nM) | no binding (tested: 100 nM) | 0.336 nM | 2.56 nM |  | GDF15 antibody agent Clone N, IgG (antibody, V domains shown) VH: QVQLVQSGAEVKKPGASVKVSCKASGYTFTDYGIFWVRQAPGQGLEWMGWITAYSGDTHYAQKLQGRVTMTTDTSTSTAYMELRSLRSDDTAVYYCVRDTQYGGSPYWGQGTLVTVSS VL: not shown
4 | 13.5 pM | no binding (tested: 100 nM) | no binding (tested: 100 nM) | no binding (tested: 100 nM) | no binding (tested: 100 nM) | no binding (tested: 100 nM) | no binding (tested: 100 nM) | no binding (tested: 100 nM) | 0.325 nM | 229 nM | 274 pM | GDF15 antibody agent Clone L, IgG (antibody, V domains shown) VH: QVQLVQSGAEVKKPGASVKVSCKASGYTFASYDIIWVRQAPGQGLEWMGWISALSGDTVYAQKLQGRVTMTTDTSTSTAYMELRSLRSDDTAVYYCARTRHDTSGIRFDYWGQGTLVTVSS VL: DIQMTQSPSSVSASVGDRVTITCRASQGIDSWLAWYQQKPGKAPKLLIYAASSLQSGVPSRFSGSGSGTDFTLTISSLQPEDFATYYCQQVHSFPITFGGGTKVEIKR
